According to article PMC11969024 (2025):

B1: peptide HD2 (from tick evasin EVA4) / CXCL11 (biotinylated, synthetic) (parent complex)
chain 1: EEDDYTAYAPLTCYFT
chain 2: FPMFKRGRCLCIGPGVKAVKVADIEKASIMYPSNNCDKIEVIITLKENKGQRCLNPKSKQARLIIKKVERKNF

Variants of: B1
With chain 1 EEDDYTAYVPLTCYFT the enrichment was -2.18 log2 (difference from the parental peptide). In the case of chain 1 EEDDLTAYAPLTCYFT, the enrichment is reported as -4.33 log2 (difference from the parental peptide). For chain 1 EEDDFTAYAPLTCYFT, the enrichment was -0.5 log2 (difference from the parental peptide). With chain 1 VEDDYTAYAPLTCYFT the enrichment was -6.09 log2 (difference from the parental peptide). For chain 1 DEDDYTAYAPLTCYFT, the enrichment was 1.33 log2 (difference from the parental peptide). With chain 1 AEDDYTAYAPLTCYFT the enrichment was 0.823 log2 (difference from the parental peptide). chain 1 EEDDYTRYAPLTCYFT was tested, and the enrichment was -1.89 log2 (difference from the parental peptide). With chain 1 EEDDYTPYAPLTCYFT the enrichment was 0.432 log2 (difference from the parental peptide). chain 1 EEDDYTGYAPLTCYFT was tested, and the enrichment was -3.03 log2 (difference from the parental peptide). In the case of chain 1 EEDDYTTYAPLTCYFT, the enrichment is reported as -0.798 log2 (difference from the parental peptide). In the case of chain 1 EEDDYTVYAPLTCYFT, the enrichment is reported as 0.52 log2 (difference from the parental peptide). With chain 1 EEDDYTKYAPLTCYFT the enrichment was -3.04 log2 (difference from the parental peptide). In the case of chain 1 EEDDYTAYAPSTCYFT, the enrichment is reported as -0.706 log2 (difference from the parental peptide). In the case of chain 1 EEDDYTAYAPKTCYFT, the enrichment is reported as -4.12 log2 (difference from the parental peptide). For chain 1 EEDDYTAYAPWTCYFT, the enrichment was 4.79 log2 (difference from the parental peptide). chain 1 EEDDYKAYAPLTCYFT was tested, and the enrichment was 0.156 log2 (difference from the parental peptide). With chain 1 EEDDYNAYAPLTCYFT the enrichment was 1.03 log2 (difference from the parental peptide). In the case of chain 1 EEDDYMAYAPLTCYFT, the enrichment is reported as 1.9 log2 (difference from the parental peptide). chain 1 EEDDYTAYAPLTCYVT was tested, and the enrichment was -0.608 log2 (difference from the parental peptide). For chain 1 EEDDYTAYAPLTCYQT, the enrichment was -2.96 log2 (difference from the parental peptide). chain 1 EEDDYTAYAPLTCYHT was tested, and the enrichment was -2.86 log2 (difference from the parental peptide). With chain 1 EEDDYTAYAPLTCYAT the enrichment was -3.02 log2 (difference from the parental peptide). chain 1 EEIDYTAYAPLTCYFT was tested, and the enrichment was -2.24 log2 (difference from the parental peptide). With chain 1 EELDYTAYAPLTCYFT the enrichment was -0.828 log2 (difference from the parental peptide). With chain 1 EETDYTAYAPLTCYFT the enrichment was -3.75 log2 (difference from the parental peptide). With chain 1 EEDDYTAVAPLTCYFT the enrichment was -0.599 log2 (difference from the parental peptide). With chain 1 EEDDYTAWAPLTCYFT the enrichment was 2.23 log2 (difference from the parental peptide). For chain 1 EEDDYTAMAPLTCYFT, the enrichment was -5.63 log2 (difference from the parental peptide). For chain 1 EEDDYTATAPLTCYFT, the enrichment was -5.62 log2 (difference from the parental peptide). For chain 1 EEDDYTAGAPLTCYFT, the enrichment was -1.09 log2 (difference from the parental peptide). With chain 1 EEDDYTAAAPLTCYFT the enrichment was -0.869 log2 (difference from the parental peptide). chain 1 EEDDYTAYAPLTCVFT was tested, and the enrichment was -5.26 log2 (difference from the parental peptide). With chain 1 EEDDYTAYAPLTCGFT the enrichment was -6.05 log2 (difference from the parental peptide). chain 1 EEDDYTAYAPLTCHFT was tested, and the enrichment was -2.54 log2 (difference from the parental peptide). In the case of chain 1 EEDDYTAYAPLDCYFT, the enrichment is reported as -5.79 log2 (difference from the parental peptide). chain 1 EEDDYTAYAPLYCYFT was tested, and the enrichment was 1.35 log2 (difference from the parental peptide). With chain 1 EEDDYTAYAPLSCYFT the enrichment was -1.85 log2 (difference from the parental peptide). In the case of chain 1 EEDDYTAYAPLLCYFT, the enrichment is reported as -0.306 log2 (difference from the parental peptide). With chain 1 EEDDYTAYAPLPCYFT the enrichment was -0.00384 log2 (difference from the parental peptide). With chain 1 EEDDYTAYAPLRCYFT the enrichment was -6.22 log2 (difference from the parental peptide). For chain 1 EEDDYTAYAPLTCYFF, the enrichment was -2.01 log2 (difference from the parental peptide). In the case of chain 1 EEDDYTAYAPLTCYFG, the enrichment is reported as 0.304 log2 (difference from the parental peptide). chain 1 EDDDYTAYAPLTCYFT was tested, and the enrichment was 0.953 log2 (difference from the parental peptide). chain 1 EVDDYTAYAPLTCYFT was tested, and the enrichment was -1.84 log2 (difference from the parental peptide). With chain 1 EKDDYTAYAPLTCYFT the enrichment was -2.28 log2 (difference from the parental peptide). With chain 1 ELDDYTAYAPLTCYFT the enrichment was -1.04 log2 (difference from the parental peptide). In the case of chain 1 EEDVYTAYAPLTCYFT, the enrichment is reported as -6.99 log2 (difference from the parental peptide). chain 1 EEDSYTAYAPLTCYFT was tested, and the enrichment was -5.73 log2 (difference from the parental peptide). chain 1 EEDDYTAYAPLTPYFT was tested, and the enrichment was -5.74 log2 (difference from the parental peptide). chain 1 EEDDYTAYAPLTLYFT was tested, and the enrichment was -8.45 log2 (difference from the parental peptide). With chain 1 EEDDYTAYAPLTQYFT the enrichment was -4.93 log2 (difference from the parental peptide). chain 1 EEDDYTAYAPLTNYFT was tested, and the enrichment was -3.76 log2 (difference from the parental peptide). chain 1 EEDDYTAYAGLTCYFT was tested, and the enrichment was 2.73 log2 (difference from the parental peptide). In the case of chain 1 EEDDYTAYAWLTCYFT, the enrichment is reported as 0.743 log2 (difference from the parental peptide). With chain 1 EEDDYTAYAHLTCYFT the enrichment was -5.09 log2 (difference from the parental peptide). chain 1 EEDDYTAYANLTCYFT was tested, and the enrichment was 1.47 log2 (difference from the parental peptide).
